The target in the assay is CD38 protein on the surfaces of Raji cells, Daudi cells, Ramos cells and RPMI8226 cells (human, UniProt P28907 1-300). The experiment in a line: cell-based or functional assay.

This is an account of results in patent US20210024645A1 (HANGZHOU SUMGEN BIOTECH, published 2021).

B1: antibody SG003 (antibody, human IgG1, kappa, V domains shown)
VH: QVQLLESGGGLVQPGGSLKLSCVASGFDFSLYWMNWVRQAPGKGLEWIGKINPDSSTINYTPSLKDKFFISRDNAKNTLYLQMTKVRSEDTALYYCARLWIATGGFDYWGQGTTLTVSS
VL: EIVMTQSPASLSASLGQRATISCRASSSVSSSAFSYVHWYQQKSGQPPKLLIYLASNLESGVPARFSGSGSGTDFTLTIHPVESEDVATYYCHHSRELPFTFGSGTKLEIKR
As to B1, the “ADCC activity, EC50 (Daudi target cells, NK92MI-CD16a effector cells, LDH release)” value was 0.72 ng/mL; the “ADCC activity, EC50 (RPMI8226 target cells, NK92MI-CD16a effector cells, LDH release)” value turned out to be 1.46 ng/mL; the “ADCC activity, EC50 (Raji target cells, NK92MI-CD16a effector cells, LDH release)” value stood at 6.97 ng/mL.
